# Measured values reported in FireProtDB (doi:10.1021/bi9909041).
# Values joined by “and” are separate entries in the source; they are usually repeats but may differ in a detail not shown here. Identical values can stand only once.
# B1: Tryptophan synthase alpha chain wild type, P0A877 (protein)
# chain: MERYESLFAQLKERKEGAFVPFVTLGDPGIEQSLKIIDTLIEAGADALELGIPFSDPLADGPTIQNATLRAFAAGVTPAQCFEMLALIRQKHPTIPIGLLMYANLVFNKGIDEFYAQCEKVGVDSVLVADVPVEESAPFRQAALRHNVAPIFICPPNADDDLLRQIASYGRGYTYLLSRAGVTGAENRAALPLNHLVAKLKEYNAAPPLQGFGISAPDQVKAAIDAGAAGAISGSAIVKIIEQHINEPEKMLAALKVFVQPMKAATRS
# Details: Escherichia coli (strain K12), pH 7.8, 25 °C, Urea, Potassium phosphate 10 mM, transition: 2, whole UniProt chain shown
protein,measurement,setting,value
B1,denaturant m value,Absorbance,1.12 kcal/mol/M
same,denaturant midpoint (higher = more stable),Absorbance,3.73 M
same,unfolding free energy,Absorbance,4.16 kcal/mol
same,denaturant m value,CD,1.11 kcal/mol/M and 1.09 kcal/mol/M
same,denaturant midpoint (higher = more stable),CD,3.67 M and 3.65 M
same,unfolding free energy,CD,4.08 kcal/mol and 3.96 kcal/mol
same,denaturant m value,Fluorescence,1.09 kcal/mol/M
same,denaturant midpoint (higher = more stable),Fluorescence,3.81 M
same,unfolding free energy,Fluorescence,4.14 kcal/mol
